Patent US9988424 (DUKE UNIVERSITY, dated 2018)

Legend:
MLV gp70 carrier protein = target: T1, MLV gp70 carrier protein; test: ELISA OD405nm, bar chart, antibody concentration not given
T1 construct: also called MuLV gp70
T1 carrier protein: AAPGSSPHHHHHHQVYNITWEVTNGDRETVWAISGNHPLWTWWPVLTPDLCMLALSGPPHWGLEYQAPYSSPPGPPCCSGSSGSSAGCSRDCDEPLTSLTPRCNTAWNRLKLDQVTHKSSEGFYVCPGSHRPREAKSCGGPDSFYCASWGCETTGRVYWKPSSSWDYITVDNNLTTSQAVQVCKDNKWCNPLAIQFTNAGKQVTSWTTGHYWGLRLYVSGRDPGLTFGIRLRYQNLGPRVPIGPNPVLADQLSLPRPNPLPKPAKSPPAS

B.040 gp140C [1] = test: as above
SIV CPZ US-1 gp140CF [2] = target: T2, SIV CPZ US-1 gp140CF (SIVcpz); test: as above
T2 construct: also called US-1 SIVCPZ gp140CF
T2 chain: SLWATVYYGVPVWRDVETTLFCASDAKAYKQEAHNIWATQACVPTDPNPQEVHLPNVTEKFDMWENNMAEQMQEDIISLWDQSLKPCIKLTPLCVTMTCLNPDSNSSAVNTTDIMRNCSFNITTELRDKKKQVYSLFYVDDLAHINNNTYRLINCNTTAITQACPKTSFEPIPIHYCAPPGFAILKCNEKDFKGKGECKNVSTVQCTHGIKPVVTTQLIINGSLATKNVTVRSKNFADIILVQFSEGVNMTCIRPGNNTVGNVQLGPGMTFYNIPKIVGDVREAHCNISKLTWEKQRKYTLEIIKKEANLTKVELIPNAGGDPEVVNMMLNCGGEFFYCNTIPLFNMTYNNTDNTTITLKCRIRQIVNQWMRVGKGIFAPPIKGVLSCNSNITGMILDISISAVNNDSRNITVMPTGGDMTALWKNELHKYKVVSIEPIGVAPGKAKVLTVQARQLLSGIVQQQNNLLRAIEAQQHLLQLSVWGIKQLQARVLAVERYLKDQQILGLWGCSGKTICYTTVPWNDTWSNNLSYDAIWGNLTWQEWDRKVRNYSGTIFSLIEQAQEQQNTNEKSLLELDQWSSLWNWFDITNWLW

G.con 140CF = target: T3, G.con 140CF; test: as above
T3 construct: also called G.con gp140CF; G.con.env03 gp140CF

Con 6 120 = target: T4, Con 6 120; test: as above
T4 construct: also called Con 6 gp120

AE.con env03 40CF = target: T5, AE.con env03 40CF; test: as above
T5 construct: also called AE.con gp140CF; AE.con.env03 gp140CF

B.62357 140C = target: T6, B.62357 140C; test: as above
T6 construct: also called B.62357 gp140C

B.con env03 140CF = target: T7, B.con env03 140CF; test: as above
T7 construct: also called B.con gp140CF

AE.A244 V1V2 Tags = AE.A244 V1V2 Tags (HIV-1)
C.1086 V1V2 Tags = C.1086 V1V2 Tags (HIV-1); test: ELISA, OD405 at 10 ug/ml
J08 B.HXB2/BALV1V2 = target: T8, J08 B.HXB2/BALV1V2 (HIV-1); test: ELISA, OD405 at 10 ug/ml
T8 construct: also called J08 B.HXB/BAL V1V2
T8 chain: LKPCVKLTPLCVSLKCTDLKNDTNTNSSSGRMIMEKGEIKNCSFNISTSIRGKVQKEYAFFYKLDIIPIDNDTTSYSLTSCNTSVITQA

gp70 B.CaseA2 V1/V2 = target: T9, gp70 B.CaseA2 V1/V2 (HIV-1 V1V2 on murine leukemia virus gp70); test: ELISA, OD405 at 10 ug/ml
T9 construct: also called B.gp70CaseA2 V1/V2; gp70 B.CaseAV1V2
T9 chain: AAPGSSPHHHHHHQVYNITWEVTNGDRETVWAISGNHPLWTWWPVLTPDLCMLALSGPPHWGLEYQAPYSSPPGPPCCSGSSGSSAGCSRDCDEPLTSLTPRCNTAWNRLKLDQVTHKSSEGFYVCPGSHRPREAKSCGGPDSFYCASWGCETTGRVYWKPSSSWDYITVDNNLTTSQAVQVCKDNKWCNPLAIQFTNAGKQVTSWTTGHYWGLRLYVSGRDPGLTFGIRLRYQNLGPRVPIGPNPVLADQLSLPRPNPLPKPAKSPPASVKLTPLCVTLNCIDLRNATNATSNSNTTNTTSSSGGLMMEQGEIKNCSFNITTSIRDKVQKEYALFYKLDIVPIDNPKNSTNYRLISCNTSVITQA

SIV CPZ US-1 gp140CF [3] = target: T2, SIV CPZ US-1 gp140CF; test: ELISA, OD405 at 10 ug/ml
D.9009SA V1/V2 tags = test: ELISA, OD405 at 10 ug/ml
B.62357 gp140C = target: T10, B.62357 gp140C; test: ELISA, OD405 at 10 ug/ml
T10 construct: also called B.62357 140C

B.con gp140CF = test: ELISA, OD405 at 10 ug/ml
B.9021 gp140C = B.9021 gp140C (HIV-1); test: ELISA, OD405 at 10 ug/ml
B.040 gp140C [4] = test: ELISA, OD405 at 10 ug/ml
J08 A.92RW020V1V2 = J08 A.92RW020V1V2 (HIV-1); test: ELISA, OD405 at 10 ug/ml

B1: CH59 reverted unmutated ancestor antibody (antibody, V domains shown)
VH: EVQLVESGGGLVQPGRSLRLSCAASGFTFDDYAMHWVRQAPGKGLEWVSGISWNSGSIGYADSVKGRFTISRDNAKNSLYLQMNSLRAEDTALYYCAKDSPRGELPFDYWGQGTLVTVSS
VL: SYELTQPPSVSVSPGQTARITCSGDALPKKYAYWYQQKSGQAPVLVIYEDSKRPSGIPERFSGSSSGTMATLTISGAQVEDEADYYCYSTDSSGNHRVFGGGTKLTVL
notes: also called CH59 RUA; CH59_RUA
B1: no binding (tested: not given) (MLV gp70 carrier protein).

B2: CH58 reverted unmutated ancestor antibody (antibody, V domains shown)
VH: EVQLVQSGAEVKKPGESLKISCKGSGYSFTSYWIGWVRQMPGKGLEWMGIIYPGDSDTRYSPSFQGQVTISADKSISTAYLQWSSLKASDTAMYYCARLGGRYYYDSSGYYYFDYWGQGTLVTVSS
VL: NFMLTQPHSVSESPGKTVTISCTRSSGSIASNYVQWYQQRPGSSPTTVIYEDNQRPSGVPDRFSGSIDSSSNSASLTISGLKTEDEADYYCQSYDSSSWVFGGGTKLTVL
notes: also called CH58 RUA; CH58_RUA
B2: no binding (tested: not given) (B.040 gp140C [1]); no binding (tested: not given) (SIV CPZ US-1 gp140CF [2]); no binding (tested: not given) (G.con 140CF). B2: no binding (tested: not given) (Con 6 120); no binding (tested: not given) (AE.con env03 40CF); no binding (tested: not given) (B.62357 140C). B2: no binding (tested: not given) (B.con env03 140CF).

B3: 697D (antibody, V domains shown)
VH: QVQLVQSGAEVKKPGSSVKVSCKASGGNFNTYTISWVRQAPGQGLEWMGRIIPIFGIVNPAQKFPGRVTINVDKSTNTAYMELSSLRSEDTAVYYCATSGVGLHFGYFDYWGQGTQVTVSS
VL: QSVLTQPPSVSGAPGQRVTISCTGSSSNIGAHYDVHWYQQLPGTAPKLLIYGNSNRPSGVPDRFSGSKSGTSASLAITGLQAEDEADYYCQSYDSSLSGYVFGTGTKVTVL
notes: also called mAb 697D; V2 conformational mAb 697D
B3 showed a Kd (AE.A244 V1V2 Tags) of 117 nM, a koff (AE.A244 V1V2 Tags) of 0.0024 s⁻¹ and a kon (AE.A244 V1V2 Tags) of 20000 M⁻¹ s⁻¹.

B4: PG16 (antibody, V domains shown)
VH: QEQLVESGGGVVQPGGSLRLSCLASGFTFHKYGMHWVRQAPGKGLEWVALISDDGMRKYHSDSMWGRVTISRDNSKNTLYLQFSSLKVEDTAMFFCAREAGGPIWHDDVKYYDFNDGYYNYHYMDVWGKGTTVTVSS
VL: QSALTQPASVSGSPGQTITISCNGTSSDVGGFDSVSWYQQSPGKAPKVMVFDVSHRPSGISNRFSGSKSGNTASLTISGLHIEDEGDYFCSSLTDRSHRIFGGGTKVTVL
notes: also called mAb PG16; bnAb PG16
B4: no binding (tested: 10 ug/ml) (C.1086 V1V2 Tags); no binding (tested: 10 ug/ml) (J08 B.HXB2/BALV1V2); no binding (tested: 10 ug/ml) (gp70 B.CaseA2 V1/V2). B4: no binding (tested: 10 ug/ml) (SIV CPZ US-1 gp140CF [3]); no binding (tested: 10 ug/ml) (D.9009SA V1/V2 tags); no binding (tested: 10 ug/ml) (B.62357 gp140C). B4: no binding (tested: 10 ug/ml) (B.con gp140CF); no binding (tested: 10 ug/ml) (B.9021 gp140C); no binding (tested: 10 ug/ml) (B.040 gp140C [4]). B4: no binding (tested: 10 ug/ml) (J08 A.92RW020V1V2).
